Test results published in PMC3573756.

Assays:
[1] = target: cardiac ryanodine receptor (RyR2) (rat (endogenous in rat ventricular myocytes)) (UniProt B0LPN4); assay: confocal fluorescence wash-in and wash-out kinetics
[2] = target: cardiac ryanodine receptor (RyR2) (rat (endogenous in rat ventricular myocytes)) (UniProt B0LPN4); assay: other fluorescence titration
[3] = target: cardiac ryanodine receptor (RyR2) (rat (endogenous in rat ventricular myocytes)) (UniProt B0LPN4); assay: FRET or BRET
[4] = target: cardiac ryanodine receptor (RyR2) (rat (endogenous in rat ventricular myocytes)) (UniProt B0LPN4); assay: FRET or BRET; remark: listed apart in the source

Sequence of UniProt B0LPN4 (B0LPN4 whole entry): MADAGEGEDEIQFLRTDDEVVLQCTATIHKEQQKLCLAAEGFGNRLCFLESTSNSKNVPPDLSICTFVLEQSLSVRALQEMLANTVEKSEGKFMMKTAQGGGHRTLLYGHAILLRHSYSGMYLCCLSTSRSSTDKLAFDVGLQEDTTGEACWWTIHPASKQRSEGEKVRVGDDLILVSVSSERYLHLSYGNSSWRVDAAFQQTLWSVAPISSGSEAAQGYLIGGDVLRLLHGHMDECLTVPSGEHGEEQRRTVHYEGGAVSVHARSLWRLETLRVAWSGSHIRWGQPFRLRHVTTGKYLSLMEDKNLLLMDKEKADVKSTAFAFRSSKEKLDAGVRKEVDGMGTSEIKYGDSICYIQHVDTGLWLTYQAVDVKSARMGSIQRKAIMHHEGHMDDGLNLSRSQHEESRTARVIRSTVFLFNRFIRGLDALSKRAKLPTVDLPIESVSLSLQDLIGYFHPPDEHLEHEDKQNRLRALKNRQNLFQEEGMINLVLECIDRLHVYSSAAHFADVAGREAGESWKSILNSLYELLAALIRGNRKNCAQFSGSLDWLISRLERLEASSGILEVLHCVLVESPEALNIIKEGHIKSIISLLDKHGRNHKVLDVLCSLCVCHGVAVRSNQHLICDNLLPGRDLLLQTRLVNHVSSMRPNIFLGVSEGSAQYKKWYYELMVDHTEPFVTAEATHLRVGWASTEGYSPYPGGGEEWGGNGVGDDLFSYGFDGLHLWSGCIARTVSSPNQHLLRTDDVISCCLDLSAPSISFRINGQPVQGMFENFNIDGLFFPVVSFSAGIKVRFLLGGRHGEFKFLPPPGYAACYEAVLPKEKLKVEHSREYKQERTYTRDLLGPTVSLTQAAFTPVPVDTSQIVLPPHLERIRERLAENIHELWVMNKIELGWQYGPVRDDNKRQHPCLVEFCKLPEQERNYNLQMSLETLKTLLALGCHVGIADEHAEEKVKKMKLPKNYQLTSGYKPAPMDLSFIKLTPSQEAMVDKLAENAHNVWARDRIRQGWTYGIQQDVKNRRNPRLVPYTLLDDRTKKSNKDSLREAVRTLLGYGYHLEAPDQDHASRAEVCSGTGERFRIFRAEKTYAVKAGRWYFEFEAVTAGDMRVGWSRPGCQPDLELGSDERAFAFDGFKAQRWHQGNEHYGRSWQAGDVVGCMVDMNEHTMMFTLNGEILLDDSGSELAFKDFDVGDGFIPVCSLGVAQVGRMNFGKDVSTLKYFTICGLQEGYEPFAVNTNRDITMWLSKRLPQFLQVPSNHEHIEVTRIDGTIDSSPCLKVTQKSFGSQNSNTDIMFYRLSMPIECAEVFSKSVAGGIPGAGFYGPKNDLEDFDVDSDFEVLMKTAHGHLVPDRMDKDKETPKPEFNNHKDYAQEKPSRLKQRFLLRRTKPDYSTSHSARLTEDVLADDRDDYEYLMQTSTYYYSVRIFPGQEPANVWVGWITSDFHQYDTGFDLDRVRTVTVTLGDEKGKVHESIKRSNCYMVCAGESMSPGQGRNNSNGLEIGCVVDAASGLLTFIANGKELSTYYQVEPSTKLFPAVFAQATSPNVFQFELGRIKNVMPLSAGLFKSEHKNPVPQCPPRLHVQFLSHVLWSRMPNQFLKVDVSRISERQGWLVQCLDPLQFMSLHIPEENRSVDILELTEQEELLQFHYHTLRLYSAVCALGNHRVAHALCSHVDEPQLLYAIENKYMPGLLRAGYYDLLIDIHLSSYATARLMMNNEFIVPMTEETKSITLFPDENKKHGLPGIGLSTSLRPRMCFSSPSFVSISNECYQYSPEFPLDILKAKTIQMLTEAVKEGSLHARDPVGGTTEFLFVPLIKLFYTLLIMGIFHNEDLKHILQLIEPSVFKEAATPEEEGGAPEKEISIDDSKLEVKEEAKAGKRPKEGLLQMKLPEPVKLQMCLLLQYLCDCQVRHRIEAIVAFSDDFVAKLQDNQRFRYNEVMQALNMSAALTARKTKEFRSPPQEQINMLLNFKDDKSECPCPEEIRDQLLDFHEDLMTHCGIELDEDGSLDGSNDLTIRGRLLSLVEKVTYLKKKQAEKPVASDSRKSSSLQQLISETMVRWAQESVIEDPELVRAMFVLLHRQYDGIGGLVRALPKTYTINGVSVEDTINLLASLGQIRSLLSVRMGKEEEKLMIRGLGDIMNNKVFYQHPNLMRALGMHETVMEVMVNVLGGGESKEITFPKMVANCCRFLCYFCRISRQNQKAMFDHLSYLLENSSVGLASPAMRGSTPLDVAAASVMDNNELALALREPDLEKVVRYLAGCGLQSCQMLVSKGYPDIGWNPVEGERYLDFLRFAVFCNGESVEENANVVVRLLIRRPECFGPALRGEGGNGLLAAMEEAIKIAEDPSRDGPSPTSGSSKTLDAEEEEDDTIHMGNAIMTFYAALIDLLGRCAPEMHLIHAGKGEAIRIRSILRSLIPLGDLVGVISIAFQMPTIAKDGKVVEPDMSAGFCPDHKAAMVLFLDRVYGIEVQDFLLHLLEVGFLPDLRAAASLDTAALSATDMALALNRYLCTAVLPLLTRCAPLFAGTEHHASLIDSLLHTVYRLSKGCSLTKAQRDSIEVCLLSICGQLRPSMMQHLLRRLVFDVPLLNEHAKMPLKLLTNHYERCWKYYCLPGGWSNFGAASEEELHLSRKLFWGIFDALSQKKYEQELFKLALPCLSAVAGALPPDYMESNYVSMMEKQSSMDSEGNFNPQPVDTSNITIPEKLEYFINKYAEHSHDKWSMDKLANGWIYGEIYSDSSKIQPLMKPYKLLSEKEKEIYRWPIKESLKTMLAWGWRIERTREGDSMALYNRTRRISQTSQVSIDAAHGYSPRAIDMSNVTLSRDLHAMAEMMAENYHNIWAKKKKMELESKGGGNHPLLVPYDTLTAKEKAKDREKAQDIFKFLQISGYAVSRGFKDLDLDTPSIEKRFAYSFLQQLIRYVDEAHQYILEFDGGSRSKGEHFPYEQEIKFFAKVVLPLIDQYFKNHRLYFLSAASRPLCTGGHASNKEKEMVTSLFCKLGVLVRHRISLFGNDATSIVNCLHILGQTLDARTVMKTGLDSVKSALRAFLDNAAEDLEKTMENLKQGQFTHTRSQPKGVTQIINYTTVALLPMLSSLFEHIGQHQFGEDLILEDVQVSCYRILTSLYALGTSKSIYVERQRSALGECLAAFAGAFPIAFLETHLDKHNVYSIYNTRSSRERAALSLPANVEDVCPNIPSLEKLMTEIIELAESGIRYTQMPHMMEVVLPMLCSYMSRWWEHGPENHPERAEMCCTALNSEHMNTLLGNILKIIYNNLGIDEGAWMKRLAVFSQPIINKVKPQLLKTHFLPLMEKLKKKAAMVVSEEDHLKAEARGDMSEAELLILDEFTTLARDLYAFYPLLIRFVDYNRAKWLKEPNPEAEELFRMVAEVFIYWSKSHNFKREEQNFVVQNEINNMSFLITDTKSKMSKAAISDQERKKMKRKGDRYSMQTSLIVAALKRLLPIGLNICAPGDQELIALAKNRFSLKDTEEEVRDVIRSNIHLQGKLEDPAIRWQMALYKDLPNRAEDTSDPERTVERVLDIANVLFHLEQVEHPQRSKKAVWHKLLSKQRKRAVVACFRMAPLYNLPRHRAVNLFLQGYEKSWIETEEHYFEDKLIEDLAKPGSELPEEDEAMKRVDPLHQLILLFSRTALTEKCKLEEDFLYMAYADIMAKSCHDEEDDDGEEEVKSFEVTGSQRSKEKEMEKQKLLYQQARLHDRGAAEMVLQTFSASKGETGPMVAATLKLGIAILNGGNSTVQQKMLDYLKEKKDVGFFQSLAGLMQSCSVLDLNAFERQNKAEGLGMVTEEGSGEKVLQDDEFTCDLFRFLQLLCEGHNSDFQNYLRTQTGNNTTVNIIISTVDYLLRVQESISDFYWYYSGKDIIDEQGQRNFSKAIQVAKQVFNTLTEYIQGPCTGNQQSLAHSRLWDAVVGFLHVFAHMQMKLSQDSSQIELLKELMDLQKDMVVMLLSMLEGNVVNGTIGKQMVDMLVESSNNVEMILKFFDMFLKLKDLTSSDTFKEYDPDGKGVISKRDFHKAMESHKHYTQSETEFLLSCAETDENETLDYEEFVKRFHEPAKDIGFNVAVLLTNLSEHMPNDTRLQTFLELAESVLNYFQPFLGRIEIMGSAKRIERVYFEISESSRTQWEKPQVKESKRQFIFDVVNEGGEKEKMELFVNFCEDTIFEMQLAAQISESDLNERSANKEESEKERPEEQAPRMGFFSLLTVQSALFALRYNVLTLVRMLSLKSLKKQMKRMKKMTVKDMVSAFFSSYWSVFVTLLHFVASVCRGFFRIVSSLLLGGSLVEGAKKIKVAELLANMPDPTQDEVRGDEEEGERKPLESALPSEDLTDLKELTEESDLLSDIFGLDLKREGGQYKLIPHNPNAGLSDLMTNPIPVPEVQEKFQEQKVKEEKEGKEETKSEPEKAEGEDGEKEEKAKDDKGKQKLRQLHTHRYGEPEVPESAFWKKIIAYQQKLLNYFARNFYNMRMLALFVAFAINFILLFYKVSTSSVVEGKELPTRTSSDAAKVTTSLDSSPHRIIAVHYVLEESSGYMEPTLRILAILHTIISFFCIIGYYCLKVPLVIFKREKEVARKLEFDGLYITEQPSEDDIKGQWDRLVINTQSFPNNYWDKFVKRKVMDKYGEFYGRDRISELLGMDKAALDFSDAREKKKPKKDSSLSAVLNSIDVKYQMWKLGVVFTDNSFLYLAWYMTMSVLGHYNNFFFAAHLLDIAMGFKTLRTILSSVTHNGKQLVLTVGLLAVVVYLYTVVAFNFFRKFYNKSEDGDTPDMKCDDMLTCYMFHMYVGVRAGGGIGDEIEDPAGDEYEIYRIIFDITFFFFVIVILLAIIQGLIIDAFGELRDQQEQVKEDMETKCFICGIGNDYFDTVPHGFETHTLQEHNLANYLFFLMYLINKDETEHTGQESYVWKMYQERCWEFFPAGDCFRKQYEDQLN

Substance	fold faster association after pre-saturation with NF-DPc10 against control [1] [fold]	percent faster τ (wash-in) with ryanodine plus caffeine against control [1] [%]	Kd [2] [nM]	stoichiometry N (DPc10 per RyR2 monomer) [2]	Kd [3] [nM]	Kd [4] [nM]
DPc10 labeled with 5-carboxyfluorescein at its N-terminus (F-DPc10) (peptide)	2	21	480	1		
DPc10 labeled with HiLyte Fluor 647 on the N-terminus (HF647-DPc10) (peptide)					450	610
